Values of other authors, collected in publication PMC3418248 (2012).

Biological target: FtsZ C-terminal 17 amino acids (Bacillus subtilis) (UniProt P17865)
Settings: cited from earlier work

Chain of EzrA (O34894 whole entry): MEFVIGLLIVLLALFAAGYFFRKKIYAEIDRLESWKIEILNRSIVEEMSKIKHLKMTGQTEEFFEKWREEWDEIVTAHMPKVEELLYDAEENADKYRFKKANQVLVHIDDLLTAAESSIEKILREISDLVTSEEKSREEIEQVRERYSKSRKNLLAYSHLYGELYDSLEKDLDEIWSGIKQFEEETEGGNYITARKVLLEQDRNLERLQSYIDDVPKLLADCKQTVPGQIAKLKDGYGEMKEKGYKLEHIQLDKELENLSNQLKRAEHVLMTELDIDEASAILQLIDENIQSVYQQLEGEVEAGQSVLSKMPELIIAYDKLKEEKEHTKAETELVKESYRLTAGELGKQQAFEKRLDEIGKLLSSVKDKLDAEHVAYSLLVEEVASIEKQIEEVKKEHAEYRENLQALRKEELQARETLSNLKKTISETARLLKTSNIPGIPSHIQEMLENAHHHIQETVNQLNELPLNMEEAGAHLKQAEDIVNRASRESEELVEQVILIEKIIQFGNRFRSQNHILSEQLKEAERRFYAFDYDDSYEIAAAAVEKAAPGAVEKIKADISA

EzrA (from UniProt O34894)
Kd: 102 µM
